The supplement of paper PMC10567573

B1: TRIM35 (parent)
chain: PTCPVCKDRASPADLRTNHTLNNL

Variants of: B1
Assay: protein stability index of a GFP-peptide fusion (GPS, HEK-293T) (PSI 1-6); higher = more stable
Conditions: c terminus: a fixed tail appended
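Also: lentivirally expressed fusions sorted by FACS into six bins by GFP to DsRed ratio, PSI derived from sequencing read proportions per bin multiplied by bin number.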

Variant	protein stability index
PTCPVCKDTASPADLRTNHTLNNL [R9T]	3.5
PTCPVWKDRASPADLRTNHTLNNL [C6W]	3.21
PTCPVYKDRASPADLRTNHTLNNL [C6Y]	4.1
PTCPVCKDRASPADLLTNHTLNNL [R16L]	3.04
PTCPVCKDRASPADLITNHTLNNL [R16I]	2.33
PTCPVCKDRASPADLHTNHTLNNL [R16H]	3.17
PTCPVCKDRASPADLATNHTLNNL [R16A]	3.34
PTCPVCKDRASPADLNTNHTLNNL [R16N]	3.32
PTCPVCKDRASPADLKTNHTLNNL [R16K]	2.7
PTCPVCKDRASPADLPTNHTLNNL [R16P]	3.11
PTCPVCKDRASPADLFTNHTLNNL [R16F]	2.42
PTCPVCKDRASPADLMTNHTLNNL [R16M]	2.72
PTCPVCKDRASPADLGTNHTLNNL [R16G]	2.63
PTCPVCKDRASPADLQTNHTLNNL [R16Q]	3.39
PTCPVCKDRASPADLSTNHTLNNL [R16S]	3.54
PTCPVCKDRASPADLCTNHTLNNL [R16C]	3.89
PTCPVCKDRASPADLDTNHTLNNL [R16D]	3.91
PTCPVCKDRASPADLETNHTLNNL [R16E]	4.09
PTCPVCKDRASYADLRTNHTLNNL [P12Y]	2.69
PTCPVCKDRASMADLRTNHTLNNL [P12M]	2.35
PTCPVCKDRASVADLRTNHTLNNL [P12V]	2.85
PTCPVCKDRASWADLRTNHTLNNL [P12W]	2.03
PTCPVCKDRASGADLRTNHTLNNL [P12G]	2.9
PTCPVCKDRASLADLRTNHTLNNL [P12L]	2.1

Variant	protein stability index
PTCPVCKDRASSADLRTNHTLNNL [P12S]	2.95
PTCPVCKDRASQADLRTNHTLNNL [P12Q]	3.11
PTCPVCKDRASRADLRTNHTLNNL [P12R]	2.36
PTCPVCKDRASKADLRTNHTLNNL [P12K]	2.83
PTCPVCKDRASHADLRTNHTLNNL [P12H]	2.61
PTCPVCKDRASAADLRTNHTLNNL [P12A]	2.46
PTCPVCKDRASEADLRTNHTLNNL [P12E]	3.38
PTCPVCKDRASFADLRTNHTLNNL [P12F]	2.52
PTCPVCKDRASIADLRTNHTLNNL [P12I]	2.47
PTCPVCKDRASDADLRTNHTLNNL [P12D]	3.5
PTCPVCKDRASTADLRTNHTLNNL [P12T]	2.96
PTCPVCKDRASCADLRTNHTLNNL [P12C]	2.58
PTCPVCKDRASNADLRTNHTLNNL [P12N]	2.89
PTCPVCKDRASPSDLRTNHTLNNL [A13S]	2.87
PTCPVCKDRASPQDLRTNHTLNNL [A13Q]	2.55
PTCPVCKDRASPYDLRTNHTLNNL [A13Y]	2.59
PTCPVCKDRASPMDLRTNHTLNNL [A13M]	2.58
PTCPVCKDRASPLDLRTNHTLNNL [A13L]	2.31
PTCPVCKDRASPPDLRTNHTLNNL [A13P]	3.29
PTCPVCKDRASPDDLRTNHTLNNL [A13D]	3.13
PTCPVCKDRASPCDLRTNHTLNNL [A13C]	3.69
PTCPVCKDRASPNDLRTNHTLNNL [A13N]	3.27
PTCPVCKDRASPKDLRTNHTLNNL [A13K]	3.65
PTCPVCKDRASPVDLRTNHTLNNL [A13V]	2.62

Variant	protein stability index
PTCPVCKDRASPRDLRTNHTLNNL [A13R]	3.2
PTCPVCKDRASPEDLRTNHTLNNL [A13E]	3.86
PTCPVCKDRASPHDLRTNHTLNNL [A13H]	3.1
PTCPVCKDRASPGDLRTNHTLNNL [A13G]	3.23
PTCPVCKDRASPFDLRTNHTLNNL [A13F]	2.26
PTCPVCKDRASPIDLRTNHTLNNL [A13I]	2.53
PTCPVCKDRASPTDLRTNHTLNNL [A13T]	2.75
PTCPVCKDRASPWDLRTNHTLNNL [A13W]	1.81
PTCPVCKLRASPADLRTNHTLNNL [D8L]	2.36
PTCPVCKFRASPADLRTNHTLNNL [D8F]	1.71
PTCPVCKQRASPADLRTNHTLNNL [D8Q]	3
PTCPVCKWRASPADLRTNHTLNNL [D8W]	2.32
PTCPVCKERASPADLRTNHTLNNL [D8E]	2.75
PTCPVCKYRASPADLRTNHTLNNL [D8Y]	2.02
PTCPVCKARASPADLRTNHTLNNL [D8A]	1.94
PTCPVCKIRASPADLRTNHTLNNL [D8I]	2.65
PTCPVCKVRASPADLRTNHTLNNL [D8V]	2.39
PTCPVCKCRASPADLRTNHTLNNL [D8C]	2.09
PTCPVCKRRASPADLRTNHTLNNL [D8R]	2.02
PTCPVCKPRASPADLRTNHTLNNL [D8P]	2.83
PTCPVCKHRASPADLRTNHTLNNL [D8H]	2.61
PTCPVCKTRASPADLRTNHTLNNL [D8T]	2.67
PTCPVCKNRASPADLRTNHTLNNL [D8N]	2.65
PTCPVCKMRASPADLRTNHTLNNL [D8M]	1.92

Variant	protein stability index
PTCPVCKGRASPADLRTNHTLNNL [D8G]	3.11
PTCPVCKKRASPADLRTNHTLNNL [D8K]	2.31
PTCPVCKSRASPADLRTNHTLNNL [D8S]	2.45
PTCPVCKDRPSPADLRTNHTLNNL [A10P]	3.17
PTCPVCKDRRSPADLRTNHTLNNL [A10R]	3.03
PTCPVCKDRMSPADLRTNHTLNNL [A10M]	2.72
PTCPVCKDRHSPADLRTNHTLNNL [A10H]	3.23
PTCPVCKDRESPADLRTNHTLNNL [A10E]	3.33
PTCPVCKDRFSPADLRTNHTLNNL [A10F]	2.96
PTCPVCKDRWSPADLRTNHTLNNL [A10W]	2.22
PTCPVCKDRLSPADLRTNHTLNNL [A10L]	1.96
PTCPVCKDRVSPADLRTNHTLNNL [A10V]	2.45
PTCPVCKDRYSPADLRTNHTLNNL [A10Y]	2.56
PTCPVCKDRTSPADLRTNHTLNNL [A10T]	2.96
PTCPVCKDRDSPADLRTNHTLNNL [A10D]	3.34
PTCPVCKDRQSPADLRTNHTLNNL [A10Q]	3.01
PTCPVCKDRNSPADLRTNHTLNNL [A10N]	2.78
PTCPVCKDRKSPADLRTNHTLNNL [A10K]	3.05
PTCPVCKDRCSPADLRTNHTLNNL [A10C]	2.03
PTCPVCKDRSSPADLRTNHTLNNL [A10S]	2.86
PTCPVCKDRGSPADLRTNHTLNNL [A10G]	2.88
PTCPVCKDRISPADLRTNHTLNNL [A10I]	3.05
